According to US12630850B2, “Enzymatic break down of chlorogenic acid in sunflower-containing products” (Chapman University, priority 2022, dated 2026):

How the values were obtained:
[1] = Song & Baik, 2017; cited from earlier work
[2] = Circular dichroism thermal and pH stability; type: physicochemical
Protocol: Circular dichroism, dynamic light scattering and mass spectrometry. Circular dichroism (CD) spectra were taken on a Jasco J-1500 CD spectrophotometer. CGA esterase (0.2 mg mL^−1) was buffered in a solution of approximately 5 mM HEPES, pH 8.0. Spectra were recorded at 4° C. using the following settings: 100 nm min^−1 scan rate, 0.2 nm data pitch, 1.0 nm bandwidth, and 2 s integration time. Five acquisitions were averaged per experimental sample. […] The Tm was estimated by fitting a Boltzmann sigmoidal function to the denaturation curve. For CD spectra that were run at different pH, a concentrated CGA esterase stock solution was diluted to either 0.2 mg mL^−1 or 0.1 mg mL^−1 into solutions of 10 mM buffer at the pH indicated.

[3] = HPLC quantification of CGA in sunflower butter cookies; type: biochemical; details: SFB cookies; both levels, 1.72×10^−1 and 1.72×10^−2 mg/g butter
Text: Cookie formulations and baking conditions. The cookie dough formulation consisted of baking soda (2.2 g), salt (2.2 g), whole egg (46.8 g), maple syrup (76.3 g), vanilla extract (2.2 g), flour (145.8 g), and butter (87.5 g). CGA esterase treatments in SFF, utilized almond butter instead of SFB. The wet (sunflower or almond butter, maple syrup, eggs, and vanilla extract) and dry (flour, baking soda, and salt) ingredients were mixed separately and subsequently combined and mixed for 75 s with an electric hand mixer. The dough was rolled out and cut to the following dimensions: 6 mm thickness and 40 mm diameter. Cookies were baked for 7 min in a convection oven preheated to 149° C. (300° F.) and allowed to cool at room temperature for 10 min before further analysis.
Preparation of sunflower butter cookies with chlorogenic acid/CGA esterase. […]
High-performance liquid chromatography (HPLC) quantification of phenolic content in sunflower cookies. […] The extract was filtered through 0.20 μm syringe filters and analyzed with an Agilent 1260 Infinity II system (Agilent Technologies) equipped with a quaternary pump (G7111B), vial sampler (G7129A), and diode array detector (HS G7117C). […] CGA and caffeic acid concentrations were detected at 320 nm and quantified using a standard curve between 0.00-0.10 mg ml^−1 CGA (y=172287x, R^2=0.994) and caffeic acid (y=248557x, R^2=0.967).

B1: CGA esterase: CGA esterase from L. helveticus (Genbank ID: WP_025283955.1, Uniprot ID: U6F2K7), expressed in Escherichia coli; the dimer is the active form (protein, listed as Lactobacillus helveticus)
chain: MSRITIERDGLTLVGDREEPFGEIYDMAIIMHGFAANRNTDLLRQIADDLRDENVASVRFDFNGHGESDGKFEDMTVCNEIADGKAILDYVRTDPHVRDIFLVGHSQGGVVASMLAGLYPDVVKKVVLLAPAAQLKDDALRSNTQGATYDPNHIPDWPLVGNKLGMKLGGFYLRTAQVLPIYEVSQCFTRPVSVIAGTNDQWDPKYAKKYDEVYENSELHMIPNADHRFSGGYKDMAADLTAQFLKPAF
In the case of B1, the Km [1] is listed as 153 µM, the Vmax [1] is listed as 0.5596 mM/min/mg and the Tm ([2]; CD signal at 222 nm, thermal denaturation) is listed as 65 °C. The “pH range over which the protein is stable (CD spectra)” value ([2]; room temperature (21° C.)) was 6.0-9.0 pH and the “Decrease of CGA concentration” value [3] was 90-95%.
